Laboratory results reported in patent US20060193849A1.

Target: MUC-1 gene product, the membrane mucin glycoprotein (polymorphic epithelial mucin or PEM) (human) (UniProt P15941)
Assay: flow cytometry equilibrium binding on MCF7 cells
Conditions: scFv

Chain of MUC-1 gene product, the membrane mucin glycoprotein (polymorphic epithelial mucin or PEM) (human) (P15941 24-1255): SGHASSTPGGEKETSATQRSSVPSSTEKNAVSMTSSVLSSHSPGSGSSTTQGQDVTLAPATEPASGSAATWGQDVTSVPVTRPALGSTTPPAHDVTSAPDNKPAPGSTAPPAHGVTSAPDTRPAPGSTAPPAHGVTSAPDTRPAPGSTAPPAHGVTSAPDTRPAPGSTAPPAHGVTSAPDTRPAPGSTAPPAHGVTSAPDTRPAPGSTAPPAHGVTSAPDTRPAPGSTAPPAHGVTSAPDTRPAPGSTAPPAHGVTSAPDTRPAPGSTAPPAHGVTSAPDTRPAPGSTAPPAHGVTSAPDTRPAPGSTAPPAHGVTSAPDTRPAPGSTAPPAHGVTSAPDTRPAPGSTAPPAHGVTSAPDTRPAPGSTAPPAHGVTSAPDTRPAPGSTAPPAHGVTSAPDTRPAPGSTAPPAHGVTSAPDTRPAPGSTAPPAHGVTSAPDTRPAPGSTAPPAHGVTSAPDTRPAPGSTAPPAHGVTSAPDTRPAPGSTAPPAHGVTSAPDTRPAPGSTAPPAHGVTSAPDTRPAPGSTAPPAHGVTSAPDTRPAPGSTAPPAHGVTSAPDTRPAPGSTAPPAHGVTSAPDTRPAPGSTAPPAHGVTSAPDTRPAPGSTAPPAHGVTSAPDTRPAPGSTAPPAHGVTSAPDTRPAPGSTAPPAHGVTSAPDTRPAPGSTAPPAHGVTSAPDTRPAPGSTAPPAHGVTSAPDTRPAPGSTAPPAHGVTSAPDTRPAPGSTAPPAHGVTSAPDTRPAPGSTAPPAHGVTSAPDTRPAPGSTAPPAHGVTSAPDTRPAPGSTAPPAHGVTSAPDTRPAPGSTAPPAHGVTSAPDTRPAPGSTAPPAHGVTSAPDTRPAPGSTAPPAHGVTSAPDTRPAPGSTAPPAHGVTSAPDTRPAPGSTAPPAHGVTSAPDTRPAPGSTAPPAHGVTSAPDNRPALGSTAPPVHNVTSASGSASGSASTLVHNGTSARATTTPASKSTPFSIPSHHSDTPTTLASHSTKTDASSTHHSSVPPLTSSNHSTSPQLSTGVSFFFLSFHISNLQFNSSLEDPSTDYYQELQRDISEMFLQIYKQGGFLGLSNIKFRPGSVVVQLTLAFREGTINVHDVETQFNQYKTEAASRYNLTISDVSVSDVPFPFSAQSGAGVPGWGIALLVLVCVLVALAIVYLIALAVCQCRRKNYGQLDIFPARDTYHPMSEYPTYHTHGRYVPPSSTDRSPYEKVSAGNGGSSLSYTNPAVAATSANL

## huHMFG1 wild-type scFv 22W
  Kd: 0.199 µM
